Source: patent KR20220147769A (dated 2022)

B1: RB6 (antibody, V domains shown)
VH: EVQLLESGGGLVQPGGSLRLSCAASGFTFSSYDMSWVRQAPGKGLEWVSGISYSGGSTYYADSVKGRFTISRDNSKNTLYLQMNSLRAEDTAVYYCARDVNFVPLVTFDYWGQGTLVTVSS
VL: QSVLTQPPSASGTPGQRVTLSCTGSSSNIGSNSVTWYQQLPGTAPKLLIYDDNQRPSGVPDRFSGSKSGTSASLAISGLRSEDEADYYCGTWDYSLSAYVFGGGTKLTVL
notes: also called clone RB6; antibody (iii)
B2: RD3 (antibody, V domains shown)
VH: EVQLLESGGGLVQPGGSLRLSCAASGFTFSDYAMSWVRQAPGKGLEWVSWIYSGSGNKYYADSVKGRFTISRDNSKNTLYLQMNSLRAEDTAVYYCARFPIARTSNSQSSYDGMDVWGQGTLVTVSS
VL: QSVLTQPPSASGTPGQRVTISCSGSSSNIGSNAVSWYQQLPGTAPKLLIYADNKRPSGVPDRFSGSKSGTSASLAISGLRSEDEADYYCGAWDSSLNAYVFGGGTKLTVL
notes: also called clone RD3; antibody (iv)
B3: RD10 (antibody, V domains shown)
VH: EVQLLESGGGLVQPGGSLRLSCAASGFTFSDYAMSWVRQAPGKGLEWVSAIYPGGGSTYYADSVKGRFTISRDNSKNTLYLQMNSLRAEDTAVYYCARNLFGFDYWGQGTLVTVSS
VL: QSVLTQPPSASGTPGQRVTISCTGSSSNIGSNAVYWYQQLPGTAPKLLIYDDSNRPSGVPDRFSGSKSGTSASLAISGLRSEDEADYYCGSWDDSLSAYVFGGGTKLTVL
notes: also called clone RD10; antibody (v)

The binders below were run against T1, SARS-CoV S protein RBD antigen (SARS-CoV, UniProt P59594 306-527) (assay: ELISA, 0.1 μg antigen coated, IgG4).
T1 construct: also called SARS-CoV RBD
B1: binds.
B2: binds.
B3: binds.
